# Where no end group is shown, it is not given here. [ ]: non-standard residue; d: D form. Lys(Me3) = C[N+](C)(C)CCCC[C@H](N)C(=O)O
# T1: ADD domain of ATRX (ATRXADD) (UniProt P46100 159-296)
# T1 construct: ATRX, N-terminal ADD (ATRX-DNMT3-DNMT3L) domain; plasmid pGEX-GP-2-ATRX ADD from Addgene; that it comes from the GST fusion and not from the His-tagged one is surmised; also called ATRX-DNMT3-DNMT3L domain; source: E. coli BL21, purified (spin column, on-column thrombin cleavage)
# T1 sequence (looked up): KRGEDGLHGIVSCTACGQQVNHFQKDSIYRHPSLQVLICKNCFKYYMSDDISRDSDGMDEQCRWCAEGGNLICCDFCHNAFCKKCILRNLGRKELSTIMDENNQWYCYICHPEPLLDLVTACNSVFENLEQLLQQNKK
# B1: H3_(1-10) peptide (peptide)
# peptide: ARTKQTARKS
# notes: histone H3 tail; source: bought: GenScript
# B2: H3_(1-11)K9me3 peptide (peptide)
# peptide: ARTKQTARKST
# modifications: trimethyl-lysine at 9, printed K(me3)
# notes: as for B1
# B3: H3_(1-11) A1L peptide (peptide)
# peptide: LRTKQTAR[Lys(Me3)]ST
# notes: histone H3 tail with A1 replaced; source: bought: GenScript
# B4: H3_(1-11) A1V peptide (peptide)
# peptide: VRTKQTAR[Lys(Me3)]ST
# notes: as for B3
# B5: H3_(1-11)K4me3K9me3 peptide (peptide)
# peptide: ART[Lys(Me3)]QTAR[Lys(Me3)]ST
# notes: as for B1
# B6: H3_(1-16) peptide (peptide)
# peptide: ARTKQTARKSTGGKAY
# notes: as for B1
# Biological target: T1, ADD domain of ATRX (ATRXADD)
# Experiment: fluorescence polarisation; competition: ATRXADD (5 μM) and H3_(1-15)K9me3-FAM (0.75 μM) incubated 15 minutes at room temperature, then unlabeled peptide at varying concentrations; PBS; 384-well plate
# Details: both partners purified
row,IC50 [µM],Binder
1,94.8 ± 4.6,B1
2,7.6 ± 1.4,B2
3,5.05 ± 0.7,B3
4,4.3 ± 0.8,B4
5,≥ 100,B5
6,85.8 ± 19.3,B6

# Source: paper PMC7181051, “Probing the Protein-Protein Interaction between the ATRXADD Domain and the Histone H3 Tail” (Molecules, 2020)
